Laboratory results taken from patent US8673848 (Novartis, dated 2014).
Each block holds one binder with its values, some of them ahead of it. Bridges are numbered along the chain shown (N, C = ends). Where no end group is shown, it is not given here. [ ]: non-standard residue; d: D form. The star is where a group is joined. Palmitoyl = CCCCCCCCCCCCCCCC(=O)*; Cha = N[C@@H](CC1CCCCC1)C(=O)O; pGlu = O=C1CC[C@@H](C(=O)O)N1; NHPhenethyl = c1ccc(CCN*)cc1; Lauroyl = CCCCCCCCCCCC(=O)*; Nle = CCCC[C@H](N)C(=O)O; Api = NC1(C(=O)O)CCNCC1; AEEA = NCCOCCOCC(=O)O; Aib = CC(C)(N)C(=O)O; Inp = O=C(O)C1CCNCC1

Target: T1, human APJ receptor (hAPJ) (human, UniProt P35414 1-380)
T1 sequence (looked up): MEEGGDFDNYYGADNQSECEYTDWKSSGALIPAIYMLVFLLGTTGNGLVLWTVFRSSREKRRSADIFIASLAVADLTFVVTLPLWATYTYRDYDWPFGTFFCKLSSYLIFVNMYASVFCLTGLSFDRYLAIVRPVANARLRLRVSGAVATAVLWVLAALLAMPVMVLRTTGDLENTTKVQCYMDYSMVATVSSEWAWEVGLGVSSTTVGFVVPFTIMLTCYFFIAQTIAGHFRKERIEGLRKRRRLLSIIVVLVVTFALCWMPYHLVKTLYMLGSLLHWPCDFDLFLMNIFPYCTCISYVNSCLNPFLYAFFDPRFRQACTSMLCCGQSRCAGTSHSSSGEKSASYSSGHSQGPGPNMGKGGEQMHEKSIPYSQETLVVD
Test: cell-based or functional assay

hAPJ Ca2+ Flux EC50: 32.6 nM
B1: Example 24: Palmitoyl-O2Oc-Q-R-P-R-L-C-H-K-G-P-Nle-C-F-OH (peptide)
peptide: Palmitoyl-[AEEA]QRPRLCHKGP[Nle]CF-OH
modifications: disulfide 7-13
SMILES: CCCCCCCCCCCCCCCC(=O)NCCOCCOCC(=O)N[C@@H](CCC(N)=O)C(=O)N[C@@H](CCCNC(=N)N)C(=O)N1CCC[C@H]1C(=O)N[C@@H](CCCNC(=N)N)C(=O)N[C@@H](CC(C)C)C(=O)N[C@H]1CSSC[C@@H](C(=O)N[C@@H](Cc2ccccc2)C(=O)O)NC(=O)[C@H](CCCC)NC(=O)[C@@H]2CCCN2C(=O)CNC(=O)[C@H](CCCCN)NC(=O)[C@H](Cc2c[nH]cn2)NC1=O

hAPJ Ca2+ Flux EC50: 24.5 nM
B2: Example 25: Lauroyl-O2Oc-Q-R-P-R-L-C-H-K-G-P-Nle-C-F-OH (peptide)
peptide: Lauroyl-[AEEA]QRPRLCHKGP[Nle]CF-OH
modifications: disulfide 7-13
SMILES: CCCCCCCCCCCC(=O)NCCOCCOCC(=O)N[C@@H](CCC(N)=O)C(=O)N[C@@H](CCCNC(=N)N)C(=O)N1CCC[C@H]1C(=O)N[C@@H](CCCNC(=N)N)C(=O)N[C@@H](CC(C)C)C(=O)N[C@H]1CSSC[C@@H](C(=O)N[C@@H](Cc2ccccc2)C(=O)O)NC(=O)[C@H](CCCC)NC(=O)[C@@H]2CCCN2C(=O)CNC(=O)[C@H](CCCCN)NC(=O)[C@H](Cc2c[nH]cn2)NC1=O

hAPJ Ca2+ Flux EC50: 52.4 nM
B3: Example 23: pE-R-P-R-L-C-K(Palmitoyl)-K-G-P-Nle-C-F-OH (peptide)
peptide: [pGlu]RPRLCK(Palmitoyl)KGP[Nle]CF-OH
modifications: disulfide 6-12
SMILES: CCCCCCCCCCCCCCCC(=O)NCCCC[C@@H]1NC(=O)[C@@H](NC(=O)[C@H](CC(C)C)NC(=O)[C@H](CCCNC(=N)N)NC(=O)[C@@H]2CCCN2C(=O)[C@H](CCCNC(=N)N)NC(=O)[C@@H]2CCC(=O)N2)CSSC[C@@H](C(=O)N[C@@H](Cc2ccccc2)C(=O)O)NC(=O)[C@H](CCCC)NC(=O)[C@@H]2CCCN2C(=O)CNC(=O)[C@H](CCCCN)NC1=O

hAPJ Ca2+ Flux EC50: 173 nM
B4: Example 20: pE-R-P-R-L-C-H-K-Aib-P-Nle-C-F-OH (peptide)
peptide: [pGlu]RPRLCHK[Aib]P[Nle]CF-OH
modifications: disulfide 6-12
SMILES: CCCC[C@@H]1NC(=O)[C@@H]2CCCN2C(=O)C(C)(C)NC(=O)[C@H](CCCCN)NC(=O)[C@H](Cc2c[nH]cn2)NC(=O)[C@@H](NC(=O)[C@H](CC(C)C)NC(=O)[C@H](CCCNC(=N)N)NC(=O)[C@@H]2CCCN2C(=O)[C@H](CCCNC(=N)N)NC(=O)[C@@H]2CCC(=O)N2)CSSC[C@@H](C(=O)N[C@@H](Cc2ccccc2)C(=O)O)NC1=O

hAPJ Ca2+ Flux EC50: 1.62 nM
B5: Example 18: H-Isn-R-P-R-L-C-H-K-G-P-Nle-C-F-OH (peptide)
peptide: H-[Inp]RPRLCHKGP[Nle]CF-OH
modifications: disulfide 6-12
SMILES: CCCC[C@@H]1NC(=O)[C@@H]2CCCN2C(=O)CNC(=O)[C@H](CCCCN)NC(=O)[C@H](Cc2c[nH]cn2)NC(=O)[C@@H](NC(=O)[C@H](CC(C)C)NC(=O)[C@H](CCCNC(=N)N)NC(=O)[C@@H]2CCCN2C(=O)[C@H](CCCNC(=N)N)NC(=O)C2CCNCC2)CSSC[C@@H](C(=O)N[C@@H](Cc2ccccc2)C(=O)O)NC1=O

hAPJ Ca2+ Flux EC50: 1.43 nM
B6: Example 16: H-R-P-R-L-C-H-K-G-P-Nle-C-F-OH (peptide)
peptide: H-RPRLCHKGP[Nle]CF-OH
modifications: disulfide 5-11
SMILES: CCCC[C@@H]1NC(=O)[C@@H]2CCCN2C(=O)CNC(=O)[C@H](CCCCN)NC(=O)[C@H](Cc2c[nH]cn2)NC(=O)[C@@H](NC(=O)[C@H](CC(C)C)NC(=O)[C@H](CCCNC(=N)N)NC(=O)[C@@H]2CCCN2C(=O)[C@@H](N)CCCNC(=N)N)CSSC[C@@H](C(=O)N[C@@H](Cc2ccccc2)C(=O)O)NC1=O

hAPJ Ca2+ Flux EC50: 3.29 nM
B7: Example 17: H-R-R-P-R-L-C-H-K-G-P-Nle-C-F-OH (peptide)
peptide: H-RRPRLCHKGP[Nle]CF-OH
modifications: disulfide 6-12
SMILES: CCCC[C@@H]1NC(=O)[C@@H]2CCCN2C(=O)CNC(=O)[C@H](CCCCN)NC(=O)[C@H](Cc2c[nH]cn2)NC(=O)[C@@H](NC(=O)[C@H](CC(C)C)NC(=O)[C@H](CCCNC(=N)N)NC(=O)[C@@H]2CCCN2C(=O)[C@H](CCCNC(=N)N)NC(=O)[C@@H](N)CCCNC(=N)N)CSSC[C@@H](C(=O)N[C@@H](Cc2ccccc2)C(=O)O)NC1=O

hAPJ Ca2+ Flux EC50: 8.83 nM
B8: Example 14: pE-R-P-R-Cha-C-H-K-G-P-Cha-C-F-OH (peptide)
peptide: [pGlu]RPR[Cha]CHKGP[Cha]CF-OH
modifications: disulfide 6-12
SMILES: N=C(N)NCCC[C@H](NC(=O)[C@@H]1CCCN1C(=O)[C@H](CCCNC(=N)N)NC(=O)[C@@H]1CCC(=O)N1)C(=O)N[C@@H](CC1CCCCC1)C(=O)N[C@H]1CSSC[C@@H](C(=O)N[C@@H](Cc2ccccc2)C(=O)O)NC(=O)[C@H](CC2CCCCC2)NC(=O)[C@@H]2CCCN2C(=O)CNC(=O)[C@H](CCCCN)NC(=O)[C@H](Cc2c[nH]cn2)NC1=O

hAPJ Ca2+ Flux EC50: 3.53 nM
B9: Example 15: pE-R-P-R-L-C-F-K-G-P-Nle-C-F-OH (peptide)
peptide: [pGlu]RPRLCFKGP[Nle]CF-OH
modifications: disulfide 6-12
SMILES: CCCC[C@@H]1NC(=O)[C@@H]2CCCN2C(=O)CNC(=O)[C@H](CCCCN)NC(=O)[C@H](Cc2ccccc2)NC(=O)[C@@H](NC(=O)[C@H](CC(C)C)NC(=O)[C@H](CCCNC(=N)N)NC(=O)[C@@H]2CCCN2C(=O)[C@H](CCCNC(=N)N)NC(=O)[C@@H]2CCC(=O)N2)CSSC[C@@H](C(=O)N[C@@H](Cc2ccccc2)C(=O)O)NC1=O

hAPJ Ca2+ Flux EC50: 90.1 nM
B10: Example 1: pE-R-P-R-L-K-H-F-G-P-Nle-D-Phenethylamine (peptide)
peptide: [pGlu]RPRLKHFGP[Nle]D-NHPhenethyl
modifications: lactam 6-12
SMILES: CCCC[C@@H]1NC(=O)[C@@H]2CCCN2C(=O)CNC(=O)[C@H](Cc2ccccc2)NC(=O)[C@H](Cc2c[nH]cn2)NC(=O)[C@@H](NC(=O)[C@H](CC(C)C)NC(=O)[C@H](CCCNC(=N)N)NC(=O)[C@@H]2CCCN2C(=O)[C@H](CCCNC(=N)N)NC(=O)[C@@H]2CCC(=O)N2)CCCCNC(=O)C[C@@H](C(=O)NCCc2ccccc2)NC1=O

hAPJ Ca2+ Flux EC50: 2.54 nM
B11: Example 10: pE-R-P-R-L-C-Aib-K-G-P-Nle-C-f-OH (peptide)
peptide: [pGlu]RPRLC[Aib]KGP[Nle]C[dF]-OH
modifications: disulfide 6-12
SMILES: CCCC[C@@H]1NC(=O)[C@@H]2CCCN2C(=O)CNC(=O)[C@H](CCCCN)NC(=O)C(C)(C)NC(=O)[C@@H](NC(=O)[C@H](CC(C)C)NC(=O)[C@H](CCCNC(=N)N)NC(=O)[C@@H]2CCCN2C(=O)[C@H](CCCNC(=N)N)NC(=O)[C@@H]2CCC(=O)N2)CSSC[C@@H](C(=O)N[C@H](Cc2ccccc2)C(=O)O)NC1=O

hAPJ Ca2+ Flux EC50: 2.07 nM
B12: Example 12: pE-R-P-R-L-C-H-K-G-P-Nle-C-Phenethylamine (peptide)
peptide: [pGlu]RPRLCHKGP[Nle]C-NHPhenethyl
modifications: disulfide 6-12

hAPJ Ca2+ Flux EC50: 8.46 nM
B13: Example 19: pE-R-P-R-L-C-H-F-G-P-Nle-C-Phenethylamine (peptide)
peptide: [pGlu]RPRLCHFGP[Nle]C-NHPhenethyl
modifications: disulfide 6-12
SMILES: CCCC[C@@H]1NC(=O)[C@@H]2CCCN2C(=O)CNC(=O)[C@H](Cc2ccccc2)NC(=O)[C@H](Cc2c[nH]cn2)NC(=O)[C@@H](NC(=O)[C@H](CC(C)C)NC(=O)[C@H](CCCNC(=N)N)NC(=O)[C@@H]2CCCN2C(=O)[C@H](CCCNC(=N)N)NC(=O)[C@@H]2CCC(=O)N2)CSSC[C@@H](C(=O)NCCc2ccccc2)NC1=O

hAPJ Ca2+ Flux EC50: 3.52 nM
B14: Example 11: p-Isn-R-P-R-L-C-Aib-K-G-P-Nle-C-f-OH (peptide)
peptide: [Inp]RPRLC[Aib]KGP[Nle]C[dF]-OH
modifications: disulfide 6-12; N-terminus assumed
SMILES: CCCC[C@@H]1NC(=O)[C@@H]2CCCN2C(=O)CNC(=O)[C@H](CCCCN)NC(=O)C(C)(C)NC(=O)[C@@H](NC(=O)[C@H](CC(C)C)NC(=O)[C@H](CCCNC(=N)N)NC(=O)[C@@H]2CCCN2C(=O)[C@H](CCCNC(=N)N)NC(=O)C2CCNCC2)CSSC[C@@H](C(=O)N[C@H](Cc2ccccc2)C(=O)O)NC1=O

hAPJ Ca2+ Flux EC50: 75.8 nM
B15: Example 21: pE-R-P-R-L-C-H-(4-NH-Isn)-G-P-Nle-C-F-OH (peptide)
peptide: [pGlu]RPRLCH[Api]GP[Nle]CF-OH
modifications: disulfide 6-12
SMILES: CCCC[C@@H]1NC(=O)[C@@H]2CCCN2C(=O)CNC(=O)C2(CCNCC2)NC(=O)[C@H](Cc2c[nH]cn2)NC(=O)[C@@H](NC(=O)[C@H](CC(C)C)NC(=O)[C@H](CCCNC(=N)N)NC(=O)[C@@H]2CCCN2C(=O)[C@H](CCCNC(=N)N)NC(=O)[C@@H]2CCC(=O)N2)CSSC[C@@H](C(=O)N[C@@H](Cc2ccccc2)C(=O)O)NC1=O

hAPJ Ca2+ Flux EC50: 2.26 nM
B16: Example 13: pE-R-P-R-L-C-H-K-G-P-Nle-C-f-OH (peptide)
peptide: [pGlu]RPRLCHKGP[Nle]C[dF]-OH
modifications: disulfide 6-12
SMILES: CCCC[C@@H]1NC(=O)[C@@H]2CCCN2C(=O)CNC(=O)[C@H](CCCCN)NC(=O)[C@H](Cc2c[nH]cn2)NC(=O)[C@@H](NC(=O)[C@H](CC(C)C)NC(=O)[C@H](CCCNC(=N)N)NC(=O)[C@@H]2CCCN2C(=O)[C@H](CCCNC(=N)N)NC(=O)[C@@H]2CCC(=O)N2)CSSC[C@@H](C(=O)N[C@H](Cc2ccccc2)C(=O)O)NC1=O

hAPJ Ca2+ Flux EC50: 42 nM
B17: Example 22: pE-R-P-R-L-C-H-K-G-P-Nle-C-K(Palmitoyl)-OH (peptide)
peptide: [pGlu]RPRLCHKGP[Nle]CK(Palmitoyl)-OH
modifications: disulfide 6-12
SMILES: CCCCCCCCCCCCCCCC(=O)NCCCC[C@H](NC(=O)[C@@H]1CSSC[C@H](NC(=O)[C@H](CC(C)C)NC(=O)[C@H](CCCNC(=N)N)NC(=O)[C@@H]2CCCN2C(=O)[C@H](CCCNC(=N)N)NC(=O)[C@@H]2CCC(=O)N2)C(=O)N[C@@H](Cc2c[nH]cn2)C(=O)N[C@@H](CCCCN)C(=O)NCC(=O)N2CCC[C@H]2C(=O)N[C@@H](CCCC)C(=O)N1)C(=O)O

hAPJ Ca2+ Flux EC50: 133 nM
B18: Example 2: pE-R-P-R-L-K-H-F-G-P-Nle-E-Phenethylamine (peptide)
peptide: [pGlu]RPRLKHFGP[Nle]E
modifications: lactam 6-12 (inferred); not fully specified (C-terminus); printed as pE-R-P-R-L-K-H-F-G-P-Nle-E-Phenethylamine
